The target in this assay is HA ectodomain trimer (UniProt Q289M7 18-528). Kind of assay: Octet. For orientation: In BLI a coated tip is dipped into the sample, and binding shifts an interference pattern.

Where only a bound is given, the exact number is not on record here.

B1: CR9114 (Fab, V domains shown)
VH: QVQLVQSGAEVKKPGSSVKVSCKSSGGTSNNYAISWVRQAPGQGLDWMGGISPIFGSTAYAQKFQGRVTISADIFSNTAYMELNSLTSEDTAVYFCARHGNYYYYSGMDVWGQGTTVTVSS
VL: SYVLTQPPAVSGTPGQRVTISCSGSDSNIGRRSVNWYQQFPGTAPKLLIYSNDQRPSVVPDRFSGSKSGTSASLAISGLQSEDEAEYYCAAWDDSLKGAVFGGGTQLTVL
In general, Kd refers to the equilibrium constant for the complex coming apart. A low value points to higher affinity. B1 displayed a Kd of less than 1 pM.

Values taken from US20240285749A1 (published 2024).
